In one experiment the target is TRIM21-RING^M10E (UniProt P19474). Kind of experiment: NMR titration; Ube2N^C87K/K92A titrated into 100 µM 15N-labelled T21-R^M10E constructs; KD from fits of chemical shift perturbations (five peaks); 25 °C; 50 mM deuterated Tris pH 7.0, 150 mM NaCl, 1 mM deuterated DTT.
The next experiment has as its target TRIM21-RING^M10E/E12R (UniProt P19474). Described as above.
The target of experiment [1] is GST-tagged TRIM21-RING (residue 1-85) (UniProt P19474). Kind of experiment: SPR; BIAcore T200; GST-T21-R captured on an anti-GST antibody-coated CM5 chip (GST on the reference channel); Ube2N or Ube2N~Ub injected in 1:2 dilution series from 80 µM; 30 µl/min; 20 mM Tris-HCl pH 8.0, 150 mM NaCl, 1 mM DTT; 25 °C; KD from equilibrium responses, single-site model. In general terms: SPR reads the build-up and loss of mass on a sensor chip optically.

These results are taken from paper PMC6776665.

One may read the Kd as the equilibrium constant for the complex coming apart. With Ube2N^C87K/K92A (enzyme), the figures for the Kd in the experiment with TRIM21-RING^M10E and with TRIM21-RING^M10E/E12R were 15 µM and 57 µM, respectively.
As usually defined, the koff is a measure of how fast the partners let go of each other. A higher koff goes with fast dissociation. Take “isopeptide-linked Ube2N^C87K/K92A~ubiquitin conjugate (from UniProt P0CG48 1-76) (complex)”: in experiment [1], the Kd turned out to be 5 µM and the koff was 0.15 s⁻¹.
For the substance “Ube2N (as used in the SPR experiment) (enzyme)”, in experiment [1], the equilibrium dissociation constant (Kd) was found to be 43 µM and the koff was over 1 s⁻¹.
